Experimental data published in patent US20220089678A1 (CARTESIAN THERAPEUTICS, published 2022).
Residue numbers refer to the chain shown, from its start.

Key:
human BCMA on cells [1] = molecular target: T1, human BCMA on cells (human, UniProt Q02223 1-184); assay: cell-based or functional assay
T1 sequence: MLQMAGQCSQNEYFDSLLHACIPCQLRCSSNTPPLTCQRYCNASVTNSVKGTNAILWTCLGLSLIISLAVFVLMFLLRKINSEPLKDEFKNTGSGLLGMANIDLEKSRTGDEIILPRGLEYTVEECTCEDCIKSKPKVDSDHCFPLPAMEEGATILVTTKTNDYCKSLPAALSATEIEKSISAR

human BCMA on cells [2] = molecular target: T1, human BCMA on cells; assay: cell-based or functional assay; remark: listed apart in the source
[3] = molecular target: T2, phycoerythrin (PE)-conjugated BCMA (Recombinant Human TNFRSF17 protein, Fc/His-tagged, R-PE labeled); Creative … (human, UniProt Q02223 1-54, R-PE labeled); assay: flow cytometry; CAR T cells stained with BCMA-PE, 3 days after electroporation
T2 construct: Bought reagent; also called BCMA-PE; not shown: Fc/His tag of the bought reagent
T2 sequence: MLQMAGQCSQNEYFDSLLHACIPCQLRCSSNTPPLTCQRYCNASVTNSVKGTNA
Experimental: (§1) CAR T cells obtained from the above-described process were tested for viability, CAR protein expression, BCMA binding, and cytotoxicity, i.e., the ability to kill BCMA+ myeloma (tumor) cells. Viability, CAR expression, and BCMA binding were determined by flow cytometry on a GUAVA® […]® 12HT Flow cytometer (EMD Millipore). To test viability, a sample of the CAR T cells was mixed with propidium iodide and run on the flow cytometer with electronic gating on fluorescence in the near infrared channel. To test CAR protein expression and BCMA binding, a sample of the CAR T cells was incubated with 0.4 ug/mL of phycoerythrin (PE)-conjugated BCMA (Recombinant Human TNFRSF17 protein, Fc/His-tagged, R-PE labeled; Creative Biomart, Shirley, N.Y.). CAR expression was assessed on the flow cytometer with electronic gating on fluorescence in the yellow channel to detect presence or absence of emission from BCMA-PE on CAR-positive and CAR-negative cells. BCMA binding was determined by measuring the intensity of fluorescence in the yellow channel to determine the relative quantity of BCMA-PE bound to labelled CAR-positive cells. For the viability, expression, and BCMA binding assays, CD8+ T cells electroporated without mRNA (CAR-negative T Cells) were tested as a parallel control.
For each of the mRNA constructs, CAR T cells were prepared by transfection into human CD8+ cells, as described in Example 1. The CAR T cells made from each mRNA construct were then tested 3 days after electroporation for BCMA binding and tumor killing, as described in Example 1.

[4] = molecular target: T2, phycoerythrin (PE)-conjugated BCMA …; assay: as above; remark: listed apart in the source
Experimental: as §1
Numerous CAR-encoding mRNA constructs were prepared using the mRNA construct of SEQ ID: 29 as a starting point (which encodes a CAR of sequence SEQ ID: 19 and comprises the scFv of sequence SEQ ID: 48). These constructs encoded the same or substantially the same amino acid residues in the scFv complementary-determining regions (CDRs) but varied with respect to the amino acid residues in the scFv framework regions. In making these variations, the experimenter's intent was to humanize the scFv framework regions without reducing BCMA-binding and tumor-killing properties of CAR T cells that express the CAR. For each of the mRNA constructs, CAR T cells were prepared by transfection into human CD8+ cells, substantially as described in Example 1. The CAR T cells made from each mRNA construct were then tested 3 days after electroporation for BCMA binding and/or tumor killing, as substantially described in Example 1.

B1: CAR comprising scFv-Y37 (SEQ ID NO: 60) (other)
chain: DIVLTQSPASLAVSPGQRATITCRASESVTILGSHLIHWYQQKPGQPPKLLIQLASNVQTGVPARFSGSGSGTDFTLTISSVEPEDTANYYCLQSRTIPRTFGQGTKVEIKGSTSGSGKPGSGEGSTKGQIQLVQSGPELKKPGGSVKISCKASGYTFTDYSINWVRQAPGKGLEWVGWINTETREPAYAYDFTGRFTFSADTSKSMAYLQINSLRAEDTAVYYCALDYSYAMDYWGQGTLVTVSS
notes: CAR on mRNA-electroporated human CD8+ T cells; Only the scFv is identified; not shown: rest of the CAR (hinge, transmembrane, cytoplasmic domains) not specified for this construct
Killing (% killed), Effector:target ratio of 1:2 (human BCMA on cells [1]): 83% | Killing (% killed), Effector:target ratio of 1:10 (human BCMA on cells [2]): 83% | BCMA Binding (arbitrary units) [3]: 381 arbitrary units | BCMA Binding [4]: 382 relative (SEQ ID: 48 = 100)

B2: CAR comprising scFv-13′ (SEQ ID NO: 69) (other)
chain: DIVLTQSPSSLSASVGDRATISCRASESVSFLGINLIHWYQQKPGQAPKLLIYLASNLETGVPARFSGSGSGTDFTLTISSVEPEDVAVYYCLQSRTLPRTFGQGTKVEIKGSTSGSGKPGSGEGSTKGQIQLVQSGPELKKPGGSVKISCAASGYTFTSYSINWVRQAPGKGLEWVGWINTETREPAYAQGFTGRFTFSADTSKSTAYLQMNSLRAEDTAVYYCALDYLYSLDFWGQGTLVTVSS
notes: as for B1
Killing (% killed), Effector:target ratio of 1:2 (human BCMA on cells [1]): 77% | BCMA Binding (arbitrary units) [3]: 230 arbitrary units

B3: CAR comprising scFv-Y32 (SEQ ID NO: 57) (other)
chain: DIVLTQSPSSLSASVGDRATISCRASESVTILGSHLIHWYQQKPGQAPKLLIQLASNVQTGVPARFSGSGSGTDFTLTISSVEPEDVAVYYCLQSRTIPRTFGQGTKVEIKGSTSGSGKPGSGEGSTKGQIQLVQSGPELKKPGGSVKISCAASGYTFTDYSINWVRQAPGKGLEWVGWINTETREPAYAYDFRGRFTFSADTSKSTAYLQMNSLRAEDTAVYYCALDYSYAMDYWGQGTLVTVSS
notes: as for B1
Killing (% killed), Effector:target ratio of 1:2 (human BCMA on cells [1]): 85% | Killing (% killed), Effector:target ratio of 1:10 (human BCMA on cells [2]): 85% | BCMA Binding (arbitrary units) [3]: 343 arbitrary units | BCMA Binding [4]: 460 relative (SEQ ID: 48 = 100) | BCMA Binding (relative to SEQ ID: 54) [4]: 124 relative to SEQ ID: 54 = 100

B4: CAR comprising scFv-21′ (SEQ ID NO: 70) (other)
chain: B3 chain with Q53N, Q59N
notes: as for B1
Killing (% killed), Effector:target ratio of 1:2 (human BCMA on cells [1]): 83% | BCMA Binding (arbitrary units) [3]: 404 arbitrary units
